From the supplement of paper PMC7125110
± gives the standard error. For some of these results: Variants at the floor of the assay were thinned out.

B1: glmS ribozyme (parent)
chain: AUAAAAGCGCCAGAACUACAGAAAUGUAGUUGACGAGGAGGAGGUUUAUCGAAUUUUCGGCGGAUGCCUCCAAA

Tests used:
Details in all cases: with glucosamine-6-phosphate
glucosamine-6-phosphate [1] = variants of: B1; assay: kcat; higher = faster cleavage; RNA array
Method in brief: (§1)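 In situ transcription by E. coli RNA polymerase produced barcoded ribozyme variants on sequenced MiSeq chips, and a hybridised Cy3 probe tracked them at 37 °C. Glucosamine-6-phosphate was flowed in at 40 μM to 10 mM in HEPES/KCl/Mg(OAc)2 buffer. kcat and KM were taken from weighted Michaelis–Menten fits of kobs values from exponential decay fits.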

glucosamine-6-phosphate [2] = variants of: B1; assay: KM; higher = weaker cofactor use; RNA array
Method in brief: as §1

glucosamine-6-phosphate [3] = variants of: B1; assay: self-cleavage kobs at 40 uM GlcN6P; higher = faster cleavage; RNA array
Method in brief: as §1

glucosamine-6-phosphate [4] = variants of: B1; assay: self-cleavage kobs at 640 uM GlcN6P; higher = faster cleavage; RNA array
Method in brief: as §1

glucosamine-6-phosphate [5] = variants of: B1; assay: self-cleavage kobs at 2500 uM GlcN6P; higher = faster cleavage; RNA array
Method in brief: as §1

glucosamine-6-phosphate [6] = variants of: B1; assay: self-cleavage kobs at 10000 uM GlcN6P; higher = faster cleavage; RNA array
Method in brief: as §1

glucosamine-6-phosphate [7] = variants of: B1; assay: self-cleavage kobs at 160 uM GlcN6P; higher = faster cleavage; RNA array
Method in brief: as §1

AUAAAAGCGCCAGAACUACAGAAAUGUAGUUAACGAGGAGGAGGUUUAUCGAAUUUUCGGCGGAUGGCUCCAAA [G32A C67G]
kcat (glucosamine-6-phosphate [1]): 0.000177 ± 2.7e-05 s⁻¹
KM (glucosamine-6-phosphate [2]): 1890 ± 580 µM
self-cleavage kobs at 40 uM GlcN6P (glucosamine-6-phosphate [3]): < 1e-05 s⁻¹
self-cleavage kobs at 640 uM GlcN6P (glucosamine-6-phosphate [4]): 4.83e-05 ± 6.9e-06 s⁻¹
self-cleavage kobs at 2500 uM GlcN6P (glucosamine-6-phosphate [5]): 9.14e-05 ± 1.2e-05 s⁻¹
self-cleavage kobs at 10000 uM GlcN6P (glucosamine-6-phosphate [6]): 0.000164 ± 2.4e-05 s⁻¹

AUAAAAGCGCCAGAACUACAGAAAUGUAGUUGACGAGGAGGAGGUUUAUCGAAUUUUCGGCGGAUGACUACAAA [C67A C70A]
kcat (glucosamine-6-phosphate [1]): 5e-05 ± 6.5e-06 s⁻¹
self-cleavage kobs at 640 uM GlcN6P (glucosamine-6-phosphate [4]): 4.23e-05 ± 1.8e-05 s⁻¹
self-cleavage kobs at 2500 uM GlcN6P (glucosamine-6-phosphate [5]): 6.33e-05 ± 1e-05 s⁻¹
self-cleavage kobs at 10000 uM GlcN6P (glucosamine-6-phosphate [6]): 4.28e-05 ± 7.3e-06 s⁻¹

AUAAAAGCGCCAGAACUACAGAAAUGUACUUGACGAGGAGGAGGUUUAUCGAAUUUUCGGCGGAUGGCUCCAAA [G29C C67G]
kcat (glucosamine-6-phosphate [1]): 8e-05 ± 4.8e-06 s⁻¹
KM (glucosamine-6-phosphate [2]): 1430 ± 280 µM
self-cleavage kobs at 2500 uM GlcN6P (glucosamine-6-phosphate [5]): 4.84e-05 ± 1.1e-05 s⁻¹
self-cleavage kobs at 10000 uM GlcN6P (glucosamine-6-phosphate [6]): 7.18e-05 ± 1.4e-05 s⁻¹

AUAAAAGCGCCAGAGCUACAGAAAUGUAGUUGACGAGGAGGAGGUUUAUCGAAUUUUCGGCGGAUCCCUCCAAA [A15G G66C]
kcat (glucosamine-6-phosphate [1]): 0.000786 ± 0.00011 s⁻¹
KM (glucosamine-6-phosphate [2]): 833 ± 220 µM
self-cleavage kobs at 40 uM GlcN6P (glucosamine-6-phosphate [3]): 3.37e-05 ± 1.1e-05 s⁻¹
self-cleavage kobs at 160 uM GlcN6P (glucosamine-6-phosphate [7]): 0.000115 ± 2.5e-05 s⁻¹
self-cleavage kobs at 640 uM GlcN6P (glucosamine-6-phosphate [4]): 0.000368 ± 6e-05 s⁻¹
self-cleavage kobs at 2500 uM GlcN6P (glucosamine-6-phosphate [5]): 0.000793 ± 0.00014 s⁻¹
self-cleavage kobs at 10000 uM GlcN6P (glucosamine-6-phosphate [6]): 0.000649 ± 9.7e-05 s⁻¹

AUAAAAGCGCCAGAACUACAGAAAUGUAGUUGACGAGUAGGAGGUUUAUCAAAUUUUCGGCGGAUGCCUCCAAA [G38U G51A]
kcat (glucosamine-6-phosphate [1]): < 1e-05 s⁻¹
self-cleavage kobs at 2500 uM GlcN6P (glucosamine-6-phosphate [5]): < 1e-05 s⁻¹

AUAAAAGCGCCAGAACUACAGAAAUGUAGUUGACGAGGAGAAGGUUUAUCGAAUUUUCGGCGGAUGCCUCUAAA [G41A C71U]
kcat (glucosamine-6-phosphate [1]): 0.000308 ± 7.8e-05 s⁻¹
KM (glucosamine-6-phosphate [2]): 697 ± 340 µM
self-cleavage kobs at 40 uM GlcN6P (glucosamine-6-phosphate [3]): 3e-05 ± 6.9e-06 s⁻¹
self-cleavage kobs at 160 uM GlcN6P (glucosamine-6-phosphate [7]): 5.5e-05 ± 7.2e-06 s⁻¹
self-cleavage kobs at 640 uM GlcN6P (glucosamine-6-phosphate [4]): 0.000132 ± 1.5e-05 s⁻¹
self-cleavage kobs at 2500 uM GlcN6P (glucosamine-6-phosphate [5]): 0.000414 ± 5e-05 s⁻¹
self-cleavage kobs at 10000 uM GlcN6P (glucosamine-6-phosphate [6]): 0.00026 ± 3e-05 s⁻¹

AUAAAAACGCCAGAACUACAGAAAUGUAGUUGACGAGGGGGAGGUUUAUCGAAUUUUCGGCGGAUGCCUCCAAA [G7A A39G]
kcat (glucosamine-6-phosphate [1]): 0.000288 ± 6.2e-05 s⁻¹
self-cleavage kobs at 160 uM GlcN6P (glucosamine-6-phosphate [7]): < 1e-05 s⁻¹
self-cleavage kobs at 10000 uM GlcN6P (glucosamine-6-phosphate [6]): 2.51e-05 ± 7.3e-06 s⁻¹

AUAAAAGCGCCAGAAAUACAGAAAUGUAGUUGACGAGGAGGAGGUUUAUCGAAUUUUCGGCGGAUGCCUCGAAA [C16A C71G]
kcat (glucosamine-6-phosphate [1]): 6.32e-05 ± 9.8e-06 s⁻¹
self-cleavage kobs at 160 uM GlcN6P (glucosamine-6-phosphate [7]): 3.88e-05 ± 1.5e-05 s⁻¹
self-cleavage kobs at 640 uM GlcN6P (glucosamine-6-phosphate [4]): 7.21e-05 ± 1.7e-05 s⁻¹
self-cleavage kobs at 2500 uM GlcN6P (glucosamine-6-phosphate [5]): 9.36e-05 ± 1.5e-05 s⁻¹
self-cleavage kobs at 10000 uM GlcN6P (glucosamine-6-phosphate [6]): 5.48e-05 ± 6.9e-06 s⁻¹

AUAAAAGCGCCAGGACUACAGAAAUGUAGUUGACGAGGAGGAGGUUUAUCGAAUUGUCGGCGGAUGCCUCCAAA [A14G U56G]
kcat (glucosamine-6-phosphate [1]): 0.0818 ± 0.014 s⁻¹
KM (glucosamine-6-phosphate [2]): 1560 ± 320 µM
self-cleavage kobs at 40 uM GlcN6P (glucosamine-6-phosphate [3]): 0.00201 ± 0.00033 s⁻¹
self-cleavage kobs at 160 uM GlcN6P (glucosamine-6-phosphate [7]): 0.0087 ± 0.0018 s⁻¹
self-cleavage kobs at 640 uM GlcN6P (glucosamine-6-phosphate [4]): 0.0223 ± 0.0035 s⁻¹
self-cleavage kobs at 2500 uM GlcN6P (glucosamine-6-phosphate [5]): 0.0673 ± 0.027 s⁻¹
self-cleavage kobs at 10000 uM GlcN6P (glucosamine-6-phosphate [6]): 0.0704 ± 0.02 s⁻¹

AUAAAAGCGCCAGAACUACAGAAAUGUAGUUGACGAGGAGGAGGUUUAUCGAGUUUUCGGCGGAUACCUCCAAA [A53G G66A]
kcat (glucosamine-6-phosphate [1]): 0.0293 ± 0.014 s⁻¹
self-cleavage kobs at 40 uM GlcN6P (glucosamine-6-phosphate [3]): 0.000617 ± 0.00011 s⁻¹
self-cleavage kobs at 640 uM GlcN6P (glucosamine-6-phosphate [4]): 0.00474 ± 0.0013 s⁻¹
self-cleavage kobs at 2500 uM GlcN6P (glucosamine-6-phosphate [5]): 0.0128 ± 0.005 s⁻¹
self-cleavage kobs at 10000 uM GlcN6P (glucosamine-6-phosphate [6]): 0.0293 ± 0.0075 s⁻¹

AUAAAUGCGCCAGAACUACAGAAAUGUAGUAGACGAGGAGGAGGUUUAUCGAAUUUUCGGCGGAUGCCUCCAAA [A6U U31A]
kcat (glucosamine-6-phosphate [1]): 0.000122 ± 2.6e-05 s⁻¹
self-cleavage kobs at 2500 uM GlcN6P (glucosamine-6-phosphate [5]): 8.83e-05 ± 2.1e-05 s⁻¹
self-cleavage kobs at 10000 uM GlcN6P (glucosamine-6-phosphate [6]): 9.85e-05 ± 2.2e-05 s⁻¹

AUAAAGGCGCCAGAACUACAGAAAUGUAGUUGACGAGGAGGAGGUUUAUCGAAGUUUCGGCGGAUGCCUCCAAA [A6G U54G]
kcat (glucosamine-6-phosphate [1]): 0.000277 ± 1.2e-05 s⁻¹
KM (glucosamine-6-phosphate [2]): 1230 ± 140 µM
self-cleavage kobs at 640 uM GlcN6P (glucosamine-6-phosphate [4]): 9.48e-05 ± 1.7e-05 s⁻¹
self-cleavage kobs at 2500 uM GlcN6P (glucosamine-6-phosphate [5]): 0.000179 ± 2.9e-05 s⁻¹
self-cleavage kobs at 10000 uM GlcN6P (glucosamine-6-phosphate [6]): 0.000251 ± 3.1e-05 s⁻¹

AUAAAAGCGCCAGAACUACAGAAAUGUAGUUGACGACGAGGAGGUUUAUCGAAUUUUCGGCGGGUGCCUCCAAA [G37C A64G]
kcat (glucosamine-6-phosphate [1]): 9.23e-05 ± 9.1e-06 s⁻¹
KM (glucosamine-6-phosphate [2]): 2450 ± 790 µM
self-cleavage kobs at 2500 uM GlcN6P (glucosamine-6-phosphate [5]): 4.35e-05 ± 9.1e-06 s⁻¹
self-cleavage kobs at 10000 uM GlcN6P (glucosamine-6-phosphate [6]): 7.49e-05 ± 8e-06 s⁻¹

AUAAAAGCGCCAGAACUACAGAAAUGUAGUUGACGAGGAGGAUGUUUAUCGAAUUUUCGGCGGAUGGCUCCAAA [G43U C67G]
kcat (glucosamine-6-phosphate [1]): 0.00171 ± 0.00015 s⁻¹
KM (glucosamine-6-phosphate [2]): 1020 ± 150 µM
self-cleavage kobs at 40 uM GlcN6P (glucosamine-6-phosphate [3]): 7.18e-05 ± 1e-05 s⁻¹
self-cleavage kobs at 160 uM GlcN6P (glucosamine-6-phosphate [7]): 0.00022 ± 6e-05 s⁻¹
self-cleavage kobs at 640 uM GlcN6P (glucosamine-6-phosphate [4]): 0.000597 ± 8.6e-05 s⁻¹
self-cleavage kobs at 2500 uM GlcN6P (glucosamine-6-phosphate [5]): 0.00117 ± 0.0002 s⁻¹
self-cleavage kobs at 10000 uM GlcN6P (glucosamine-6-phosphate [6]): 0.00166 ± 0.00022 s⁻¹

AUAAAAGCGCCAGAACUACAGAAAUGUAGUUGACGAGGAGGAGGUUUAUCGAGUUUUCUGCGGAUGCCUCCAAA [A53G G59U]
kcat (glucosamine-6-phosphate [1]): 2.73e-05 ± 4.3e-06 s⁻¹
self-cleavage kobs at 2500 uM GlcN6P (glucosamine-6-phosphate [5]): 2.98e-05 ± 1.2e-05 s⁻¹
self-cleavage kobs at 10000 uM GlcN6P (glucosamine-6-phosphate [6]): 2.45e-05 ± 7.8e-06 s⁻¹

AUAAAAGCGCCAGAACUACAGAAAUGUAGUUGACGAGUAGGAGGUUGAUCGAAUUUUCGGCGGAUGCCUCCAAA [G38U U47G]
kcat (glucosamine-6-phosphate [1]): < 1e-05 s⁻¹
self-cleavage kobs at 40 uM GlcN6P (glucosamine-6-phosphate [3]): < 1e-05 s⁻¹

AUAAAAGCGCCAGAACUACAGAAAUGUAGUUGACGAGGAGGAGGUUUAUCGAAUUUUGGGGGGAUGCCUCCAAA [C58G C61G]
kcat (glucosamine-6-phosphate [1]): 3.21e-05 ± 1e-05 s⁻¹
self-cleavage kobs at 640 uM GlcN6P (glucosamine-6-phosphate [4]): 5.63e-05 ± 2.4e-05 s⁻¹
